# Experimental data as given in the RNAGym collection of RNA variant scans (doi:10.7554/elife.80360).
# B1: Hairpin Ribozyme (parent)
# chain: GUCCUCUUUCACGUGCGCGUGAAAGAGAGAAGUGAACCAGAGAAACACACGUUGUGGUAUAUUACCUGGUA
# Variants of: B1
# Assay: self-cleavage, relative activity (ratio to wild type); higher = more cleavage; co-transcriptional
row,Variant,self-cleavage
1,GUCCUCUUUCACGUGCGCGUGGAAGAGAGAAGUGAACCAGAGAAACACACGUUGUGGUAUCUUACCUGGUA,0.337
2,GUCCUCUUUCACGUGCGCGUGACAGCGAGAAGUGAACCAGAGAAACACACGUUGUGGUAUAUUACCUGGUA,0.507
3,GUCCUCUUUCACGUGCGCGUGUAAGAGAGAAGUGAACCAGAGAAACACACGUUGUAGUAUAUUACCUGGUA,0.147
4,GUCCUCUUUCACGUGCGCGUGGAAGAGAGAAGUGAACCAGAGAAAUACACGUUGUGGUAUAUUACCUGGUA,0.0765
5,GUCCUCUUUCACGUGCGCGUGGAAGAGAGAAGUGAACCAGAGAAAGACACGUUGUGGUAUAUUACCUGGUA,0.208
6,GUCCUCUUUCACGUGCGCGUGUAAGAGAGAAGUGAACCAGAGAAACACACGUUGUGGUAUAUUACUUGGUA,0.482
7,GUCCUCUUUCACGUGCGCGUGUAAGAGAGAAGUGAACCAGAGAAACACAGGUUGUGGUAUAUUACCUGGUA,0.223
8,GUCCUCUUUCACGUGCGCGUGACAGAGAGAAGUGCACCAGAGAAACACACGUUGUGGUAUAUUACCUGGUA,0.797
9,GUCCUCUUUCACGUGCGCGUGUAAGAGAGAAGUGAACCAGAGAAACACACGUUGUGGUAUAUUGCCUGGUA,0.474
10,GUCCUCUUUCACGUGCGCGUGUAAGAGAGAAGUGAACCAGAGAAACACACGUUGUGGUAUAUUUCCUGGUA,0.14
11,GUCCUCUUUCACGUGCGCGUGGAAGAGAGAAGUGAAUCAGAGAAACACACGUUGUGGUAUAUUACCUGGUA,0.646
12,GUCCUCUUUCACGUGCGCGUGGAAGAGAGAAGUGAAACAGAGAAACACACGUUGUGGUAUAUUACCUGGUA,0.312
13,GUCCUCUUUCACGUGCGCGUGGAAGAGAGAAGUGAACCAGAGAAACACAGGUUGUGGUAUAUUACCUGGUA,0.42
14,GUCCUCUUUCACGUGCGCGUGGAAGAGAGAAGUGAACCAGAGAAACACAUGUUGUGGUAUAUUACCUGGUA,0.362
15,GUCCUCUUUCACGUGCGCGUGUAAGAGAGAAGUGAACCAGACAAACACACGUUGUGGUAUAUUACCUGGUA,0.325
16,GUCCUCUUUCACGUGCGCGUGGAAGAGAGAAGGGAACCAGAGAAACACACGUUGUGGUAUAUUACCUGGUA,0.111
17,GUCCUCUUUCACGUGCGCGUGUAAGAGAGAAGUGAACCAGAGAAACACACGUUGUGGGAUAUUACCUGGUA,0.769
18,GUCCUCUUUCACGUGCGCGUGUAAGAGAGAAGUGAACCAGAGAAACACACGUUGUGGAAUAUUACCUGGUA,0.589
19,GUCCUCUUUCACGUGCGCGUGUAAGAGAGAAGUGAACCAGAGAAACACACGUUCUGGUAUAUUACCUGGUA,0.333

row,Variant,self-cleavage
1,GUCCUCUUUCACGUGCGCGUGUAAGAGAGAAGUGAACCAGAGAAACACACGUUUUGGUAUAUUACCUGGUA,0.518
2,GUCCUCUUUCACGUGCGCGUGUAAGAGAGAAGUGAACCAGAGAAACACACGUUAUGGUAUAUUACCUGGUA,0.335
3,GUCCUCUUUCACGUGCGCGUGUAAGAGAGAAGUGAACCAGAGAAACACACGUUGUGGUAUAUUACCUGGCA,0.876
4,GUCCUCUUUCACGUGCGCGUGGAAGAGAGAAGUGAACCAGAGAAACACACGUUGUGGUAUAUGACCUGGUA,0.171
5,GUCCUCUUUCACGUGCGCGUGGAAGAGAGAAGUGAACCAGAGAAACACACGUUGUGGUAUAUAACCUGGUA,0.22
6,GUCCUCUUUCACGUGCGCGUGGAAGAGAGAAGUGAACCAGAGAAACACACGUUGUGGUAUAUUACCUGGGA,0.658
7,GUCCUCUUUCACGUGCGCGUGGAAGAGAGAAGUGAACCAGAGAAACACACGUUGUGGUAUAUUACCUGGAA,0.81
8,GUCCUCUUUCACGUGCGCGUGGAAGAGAGAAGUGAACCAGAGAAACACUCGUUGUGGUAUAUUACCUGGUA,0.126
9,GUCCUCUUUCACGUGCGCGUGUAAGAGAGAAGUGAACCAGAGAAACACACGUUGUGUUAUAUUACCUGGUA,0.366
10,GUCCUCUUUCACGUGCGCGUGGAAGAGAGAAGUGAACCAGAGAAACACACGUUGUGAUAUAUUACCUGGUA,0.17
11,GUCCUCUUUCACGUGCGCGUGGAAGAGAGAAGUGAACCAGAGAAACACACGUUGUGUUAUAUUACCUGGUA,0.305
12,GUCCUCUUUCACGUGCGCGUGACAGAGAGCAGUGAACCAGAGAAACACACGUUGUGGUAUAUUACCUGGUA,0.246
13,GUCCUCUUUCACGUGCGCGUGUAAGAGAGAAGUGAACCAGAGAAACACACGUUGUGGUCUAUUACCUGGUA,0.17
14,GUCCUCUUUCACGUGCGCGUGUAAGAGAGAAAUGAACCAGAGAAACACACGUUGUGGUAUAUUACCUGGUA,0.122
15,GUCCUCUUUCACGUGCGCGUGUAAGAGAGAAGUGAACCAGAGAAACACACGUUGUGGUAUAUUACCGGGUA,0.295
16,GUCCUCUUUCACGUGCGCGUGGAAGAGAGAAGUGAACCAGAGAAACACACGUUGUGGUUUAUUACCUGGUA,0.0393
17,GUCCUCUUUCACGUGCGCGUGGAAGAGAGAAGUGAACCAGAUAAACACACGUUGUGGUAUAUUACCUGGUA,0.288
18,GUCCUCUUUCACGUGCGCGUGGAAGAGAGAAGUGAACCAGACAAACACACGUUGUGGUAUAUUACCUGGUA,0.365
19,GUCCUCUUUCACGUGCGCGUGGAAGAGAGAAGUGAACCAGAGAAACACACGUAGUGGUAUAUUACCUGGUA,0.926
